Measured values published in the Immune Epitope Database (IEDB).

Legend:
Test in all cases: IEDB peptide-MHC binding, purified MHC/competitive/radioactivity; filed as Kd, often an IC50 or EC50 that approximates it; ≥ and ≤ were set here for values at or beyond the usual limits of such assays
HLA-A*02:06 = molecular target: HLA-A*02:06
HLA-A*02:02 = molecular target: HLA-A*02:02
HLA-A*02:03 = molecular target: HLA-A*02:03
HLA-A*31:01 = molecular target: HLA-A*31:01
HLA-A*33:01 = molecular target: HLA-A*33:01
HLA-A*68:01 = molecular target: HLA-A*68:01
HLA-A*11:01 = molecular target: HLA-A*11:01
HLA-A*03:01 = molecular target: HLA-A*03:01
[1] = source organism: Vaccinia virus WR
[2] = source organism: SARS coronavirus Tor2
[3] = source organism: Lassa virus Josiah
[4] = source organism: Vaccinia virus Copenhagen
[5] = source organism: Dengue virus 3 Martinique/1243/1999
[6] = source organism: Dengue virus 1 Brazil/97-11/1997

Row | Sequence | Kd (HLA-A*31:01; [1]) | Kd (HLA-A*33:01; [1]) | Kd (HLA-A*68:01; [1]) | Kd (HLA-A*11:01; [1]) | Kd (HLA-A*03:01; [1]) | other results
1 | NMKPNFWSRI |  |  |  |  |  | Kd (HLA-A*02:06; [1]): 13900 nM; Kd (HLA-A*02:02; [1]): 1680 nM; Kd (HLA-A*02:03; [1]): 193 nM
2 | PLTGNNTITT |  |  |  |  |  | Kd (HLA-A*02:06; [1]): ≥ 69800 nM; Kd (HLA-A*02:02; [1]): 7670 nM; Kd (HLA-A*02:03; [1]): ≥ 29500 nM
3 | KTEHCDDFM |  |  |  |  |  | Kd (HLA-A*02:06; [1]): 2520 nM; Kd (HLA-A*02:02; [1]): 6500 nM; Kd (HLA-A*02:03; [1]): 18100 nM
4 | LVTRKCPQKK | ≥ 70000 nM | ≥ 70000 nM | ≥ 70200 nM | 15900 nM | ≥ 70100 nM | 
5 | VLLRKNGNK |  |  |  |  |  | Kd (HLA-A*31:01; [2]): 2360 nM; Kd (HLA-A*33:01; [2]): 9640 nM; Kd (HLA-A*68:01; [2]): ≥ 26100 nM; Kd (HLA-A*11:01; [2]): 1660 nM; Kd (HLA-A*03:01; [2]): 42.2 nM
6 | FSTSFYLISI |  |  |  |  |  | Kd (HLA-A*02:06; [3]): 9.23 nM; Kd (HLA-A*02:02; [3]): 2.13 nM; Kd (HLA-A*02:03; [3]): 52.6 nM
7 | SLLKETIQK |  |  |  |  |  | Kd (HLA-A*31:01; [4]): ≥ 20000 nM; Kd (HLA-A*33:01; [4]): 7380 nM; Kd (HLA-A*68:01; [4]): 3480 nM; Kd (HLA-A*11:01; [4]): 16.8 nM; Kd (HLA-A*03:01; [4]): 39.6 nM
8 | MTLVPVLEKK | 122 nM | 869 nM | 1.31 nM | 0.466 nM | 8.42 nM | 
9 | LLNMRDLIVT |  |  |  |  |  | Kd (HLA-A*02:06; [1]): 707 nM; Kd (HLA-A*02:02; [1]): 1420 nM; Kd (HLA-A*02:03; [1]): 557 nM
10 | DFAVSKGFFK |  |  |  |  |  | Kd (HLA-A*31:01; [2]): 1040 nM; Kd (HLA-A*33:01; [2]): 50.1 nM; Kd (HLA-A*68:01; [2]): 16.8 nM; Kd (HLA-A*11:01; [2]): 107 nM; Kd (HLA-A*03:01; [2]): 768 nM
11 | TTTSTALGK |  |  |  |  |  | Kd (HLA-A*31:01; [2]): 1080 nM; Kd (HLA-A*33:01; [2]): ≥ 77700 nM; Kd (HLA-A*68:01; [2]): 28 nM; Kd (HLA-A*11:01; [2]): 31.8 nM; Kd (HLA-A*03:01; [2]): 718 nM
12 | SMQNCLLRLK |  |  |  |  |  | Kd (HLA-A*31:01; [2]): 18.1 nM; Kd (HLA-A*33:01; [2]): 725 nM; Kd (HLA-A*68:01; [2]): 1280 nM; Kd (HLA-A*11:01; [2]): 17.8 nM; Kd (HLA-A*03:01; [2]): 9.94 nM
13 | HLTKTDKKY | 9480 nM | ≥ 41900 nM | 7290 nM | 1970 nM | ≥ 22900 nM | 
14 | TTLLNETAK | 3560 nM | 8060 nM | 10.2 nM | 13.1 nM | 201 nM | 
15 | TLNVLAWLY |  |  |  |  |  | Kd (HLA-A*31:01; [2]): 2720 nM; Kd (HLA-A*33:01; [2]): 7370 nM; Kd (HLA-A*68:01; [2]): 13200 nM; Kd (HLA-A*11:01; [2]): 25 nM; Kd (HLA-A*03:01; [2]): 36.5 nM
16 | LMYALEPRK | 5640 nM | ≥ 25900 nM | 808 nM | 53.9 nM | 5.59 nM | 
17 | VSDLYTSMR | 1310 nM | 4200 nM | 651 nM | 4650 nM | 2490 nM | 
18 | MSRGYFEHMK | 22 nM | 2170 nM | 8.88 nM | 7.24 nM | 31.8 nM | 

Row | Sequence | Kd (HLA-A*31:01; [1]) | Kd (HLA-A*33:01; [1]) | Kd (HLA-A*68:01; [1]) | Kd (HLA-A*11:01; [1]) | Kd (HLA-A*03:01; [1]) | other results
19 | DFWRLYNSLK | 2570 nM | 3.13 nM | 730 nM | 1010 nM | 1650 nM | 
20 | VQADMGCVV |  |  |  |  |  | Kd (HLA-A*02:06; source organism: Dengue virus 4 Singapore/8976/1995): 23.3 nM
21 | NMINKLYGY | ≥ 37800 nM | 14300 nM | ≥ 31900 nM | 18600 nM | 2560 nM | 
22 | GLFTSLGKA |  |  |  |  |  | Kd (HLA-A*02:03; source organism: Dengue virus 4 Dominica/814669/1981): 10.8 nM
23 | LISLNSMYTR | 1.11 nM | 115 nM | 38.6 nM | 22.8 nM | 1090 nM | 
24 | SVSAKQLRTR | 700 nM | 5590 nM | 148 nM | 90.8 nM | 168 nM | 
25 | DTSASEIKDR | 7970 nM | 835 nM | 17.6 nM | 1130 nM | 14800 nM | 
26 | TSLAIKNYY | 2260 nM | ≥ 29300 nM | 1670 nM | 294 nM | 18200 nM | 
27 | KAGNILFWPY | ≥ 22500 nM | ≥ 70000 nM | 14000 nM | 363 nM | 248 nM | 
28 | YITDDSDDY | ≥ 77900 nM | ≥ 77700 nM | ≥ 77700 nM | ≥ 77900 nM | ≥ 78000 nM | 
29 | GVTFQGKFKK |  |  |  |  |  | Kd (HLA-A*31:01; [2]): 2840 nM; Kd (HLA-A*33:01; [2]): ≥ 24100 nM; Kd (HLA-A*68:01; [2]): 1860 nM; Kd (HLA-A*11:01; [2]): 536 nM; Kd (HLA-A*03:01; [2]): 761 nM
30 | LFSKNILKY | 3890 nM | 8620 nM | 444 nM | 5990 nM | 191 nM | 
31 | IMTIDLDPV |  |  |  |  |  | Kd (HLA-A*02:06; [5]): 34.8 nM; Kd (HLA-A*02:03; [5]): 15.3 nM
32 | PLTSLVITY | 1880 nM | ≥ 46800 nM | 5600 nM | ≥ 22100 nM | 13900 nM | 
33 | VQYENLKYSV |  |  |  |  |  | Kd (HLA-A*02:06; [6]): 31.2 nM
34 | FMVSVSDFR | 67.2 nM | 219 nM | 0.398 nM | 493 nM | 3050 nM | 
35 | KMFEATARGA |  |  |  |  |  | Kd (HLA-A*02:03; [6]): 51.1 nM
36 | ATDYIASGQR | 197 nM | 2110 nM | 192 nM | 73.2 nM | 148 nM | 
